Test results as given in article doi:10.1101/864769.

Biological target: CP-capped actin filament barbed ends (not stated | chicken) (UniProt P60709)
Experiment: single-filament uncapping assay

Kd: 300 nM
Substance: mouse twinfilin-1 (from UniProt Q91YR1 1-350) (natural protein)
